Legend:
FAC binding constant = settings: at 25° C.
Method: (§1) Details of the FAC method are described in Patent Document 2 filed by some of the present applicants, for example.
(§2) Binding constants (at 25° C.) of PhoSL, SRL, NSL and LSL belonging to the fucose α1→6 specific lectin for various sugar chains are shown in Tables 2 to 5.

[1] = FAC binding constant (Table 5 entry); settings: Table 5: sugar chain having no fucose; at 25° C.
Method: as §1, §2

[2] = Binding to sugar chains, summary of Tables 2 to 5
Method: as §1, §2
The AAL and AOL bind to the fucose α1→6 sugar chains (sugar chains No. 015, 201 to 203, and 401 to 418), as well as to the glycolipid-type sugar chain excluding the fucose α1→6 (sugar chains No. 718, 722, 723, 727, 909, 910 and 933). The LCL and PSL bind to the fucose α1→6 sugar chain, as well as to sugar chain excluding the α1→6 fucose (sugar chains No. 003, and 005 to 014).
Furthermore, the binding constant of the fucose α1→6 specific lectin is not decreased even if a sialic acid is added to the fucose α1→6 sugar chain (sugar chains No. 601 and 602). In addition, the fucose α1→6 specific lectin also strongly binds to the triple-strand (sugar chains No. 407 to 413) and the four-strand (sugar chains No. 418) of the fucose uα1→6 sugar chain.

[3] = sugar chain having fucose other than α1→6 fucose

B1: PSL: Pisum sativum lectin, affinity for fucose α1→6 but not specific (protein, UniProt P02867 31-217; P02867 218-275, looked up)
Lectin beta chain: TETTSFLITKFSPDQQNLIFQGDGYTTKEKLTLTKAVKNTVGRALYSSPIHIWDRETGNVANFVTSFTFVINAPNSYNVADGFTFFIAPVDTKPQTGGGYLGVFNSAEYDKTTQTVAVEFDTFYNAAWDPSNRDRHIGIDVNSIKSVNTKSWKLQNGEEANVVIAFNAATNVLTVSLTYPNSLEEEN
Lectin alpha chain: VTSYTLSDVVSLKDVVPEWVRIGFSATTGAEYAAHEVLSWSFHSELSGTSSSKQAADA
Binding constant for sugar chain No. 728 (FAC binding constant; Table 3: sugar chain having fucose other than α1→6 fucose): <1000 M⁻¹ | Binding constant for sugar chain No. 419 (FAC binding constant; [3]): <1000 M⁻¹ | Binding constant for sugar chain No. 420 (FAC binding constant; [3]): <1000 M⁻¹ | Binding constant for sugar chain No. 718 (FAC binding constant; [3]): <1000 M⁻¹ | Binding constant for sugar chain No. 719 (FAC binding constant; [3]): <1000 M⁻¹ | Binding constant for sugar chain No. 720 (FAC binding constant; [3]): <1000 M⁻¹ | Binding constant for sugar chain No. 721 (FAC binding constant; [3]): <1000 M⁻¹ | Binding constant for sugar chain No. 722 (FAC binding constant; [3]): <1000 M⁻¹ | Binding constant for sugar chain No. 723 (FAC binding constant; [3]): <1000 M⁻¹ | Binding constant for sugar chain No. 726 (FAC binding constant; [3]): <1000 M⁻¹ | Binding constant for sugar chain No. 727 (FAC binding constant; [3]): <1000 M⁻¹ | Binding constant for sugar chain No. 729 (FAC binding constant; [3]): <1000 M⁻¹ | Binding constant for sugar chain No. 730 (FAC binding constant; [3]): <1000 M⁻¹ | Binding constant for sugar chain No. 731 (FAC binding constant; [3]): <1000 M⁻¹ | Binding constant for sugar chain No. 739 (FAC binding constant; [3]): <1000 M⁻¹ | Binding constant for sugar chain No. 909 (FAC binding constant; [3]): <1000 M⁻¹ | Binding constant for sugar chain No. 910 (FAC binding constant; [3]): <1000 M⁻¹ | Binding constant for sugar chain No. 931 (FAC binding constant; [3]): <1000 M⁻¹ | Binding constant for sugar chain No. 932 (FAC binding constant; [3]): <1000 M⁻¹ | Binding constant for sugar chain No. 933 (FAC binding constant; [3]): <1000 M⁻¹ | Binding constant for sugar chain No. 001 (FAC binding constant; sugar chain having no fucose): <1000 M⁻¹ | Binding constant for sugar chain No. 002 (FAC binding constant; sugar chain having no fucose): <1000 M⁻¹ | Binding constant for sugar chain No. 003 (FAC binding constant; sugar chain having no fucose): 7800 M⁻¹ | Binding constant for sugar chain No. 004 (FAC binding constant; sugar chain having no fucose): <1000 M⁻¹ | Binding constant for sugar chain No. 005 (FAC binding constant; sugar chain having no fucose): 7400 M⁻¹ | Binding constant for sugar chain No. 006 (FAC binding constant; sugar chain having no fucose): 7100 M⁻¹ | Binding constant for sugar chain No. 007 (FAC binding constant; sugar chain having no fucose): 7800 M⁻¹ | Binding constant for sugar chain No. 008 (FAC binding constant; sugar chain having no fucose): 10000 M⁻¹ | Binding constant for sugar chain No. 009 (FAC binding constant; sugar chain having no fucose): 7900 M⁻¹ | Binding constant for sugar chain No. 010 (FAC binding constant; sugar chain having no fucose): <1000 M⁻¹ | Binding constant for sugar chain No. 011 (FAC binding constant; sugar chain having no fucose): <1000 M⁻¹ | Binding constant for sugar chain No. 012 (FAC binding constant; sugar chain having no fucose): 17000 M⁻¹ | Binding constant for sugar chain No. 013 (FAC binding constant; sugar chain having no fucose): <1000 M⁻¹ | Binding constant for sugar chain No. 014 (FAC binding constant; sugar chain having no fucose): 8600 M⁻¹ | Binding constant for sugar chain No. 101 (FAC binding constant; sugar chain having no fucose): <1000 M⁻¹ | Binding constant for sugar chain No. 103 (FAC binding constant; sugar chain having no fucose): <1000 M⁻¹ | Binding constant for sugar chain No. 104 (FAC binding constant; sugar chain having no fucose): <1000 M⁻¹ | Binding constant for sugar chain No. 105 (FAC binding constant; sugar chain having no fucose): <1000 M⁻¹ | Binding constant for sugar chain No. 107 (FAC binding constant; sugar chain having no fucose): <1000 M⁻¹ | Binding constant for sugar chain No. 108 (FAC binding constant; sugar chain having no fucose): <1000 M⁻¹ | Binding constant for sugar chain No. 301 (FAC binding constant; sugar chain having no fucose): <1000 M⁻¹ | Binding constant for sugar chain No. 304 (FAC binding constant; sugar chain having no fucose): <1000 M⁻¹ | Binding constant for sugar chain No. 305 (FAC binding constant; sugar chain having no fucose): <1000 M⁻¹ | Binding constant for sugar chain No. 307 (FAC binding constant; sugar chain having no fucose): 2400 M⁻¹ | Binding constant for sugar chain No. 308 (FAC binding constant; sugar chain having no fucose): <1000 M⁻¹ | Binding constant for sugar chain No. 313 (FAC binding constant; sugar chain having no fucose): <1000 M⁻¹ | Binding constant for sugar chain No. 314 (FAC binding constant; sugar chain having no fucose): <1000 M⁻¹ | Binding constant for sugar chain No. 323 (FAC binding constant; sugar chain having no fucose): <1000 M⁻¹ | Binding constant for sugar chain No. 501 (FAC binding constant; sugar chain having no fucose): <1000 M⁻¹ | Binding constant for sugar chain No. 502 (FAC binding constant; sugar chain having no fucose): <1000 M⁻¹ | Binding constant for sugar chain No. 503 (FAC binding constant; sugar chain having no fucose): <1000 M⁻¹ | Binding constant for sugar chain No. 504 (FAC binding constant; sugar chain having no fucose): <1000 M⁻¹ | Binding constant for sugar chain No. 701 (FAC binding constant; sugar chain having no fucose): <1000 M⁻¹ | Binding constant for sugar chain No. 702 (FAC binding constant; sugar chain having no fucose): <1000 M⁻¹ | Binding constant for sugar chain No. 703 (FAC binding constant; sugar chain having no fucose): <1000 M⁻¹ | Binding constant for sugar chain No. 704 (FAC binding constant; sugar chain having no fucose): <1000 M⁻¹ | Binding constant for sugar chain No. 705 (FAC binding constant; sugar chain having no fucose): <1000 M⁻¹ | Binding constant for sugar chain No. 706 (FAC binding constant; sugar chain having no fucose): <1000 M⁻¹ | Binding constant for sugar chain No. 707 (FAC binding constant; sugar chain having no fucose): <1000 M⁻¹ | Binding constant for sugar chain No. 708 (FAC binding constant; sugar chain having no fucose): <1000 M⁻¹ | Binding constant for sugar chain No. 709 (FAC binding constant; sugar chain having no fucose): <1000 M⁻¹ | Binding constant for sugar chain No. 710 (FAC binding constant; sugar chain having no fucose): <1000 M⁻¹ | Binding constant for sugar chain No. 711 (FAC binding constant; sugar chain having no fucose): <1000 M⁻¹ | Binding constant for sugar chain No. 712 (FAC binding constant; sugar chain having no fucose): <1000 M⁻¹ | Binding constant for sugar chain No. 713 (FAC binding constant; sugar chain having no fucose): <1000 M⁻¹ | Binding constant for sugar chain No. 715 (FAC binding constant; sugar chain having no fucose): <1000 M⁻¹ | Binding constant for sugar chain No. 716 (FAC binding constant; sugar chain having no fucose): <1000 M⁻¹ | Binding constant for sugar chain No. 717 (FAC binding constant; sugar chain having no fucose): <1000 M⁻¹ | Binding constant for sugar chain No. 724 (FAC binding constant; sugar chain having no fucose): <1000 M⁻¹ | Binding constant for sugar chain No. 725 (FAC binding constant; sugar chain having no fucose): <1000 M⁻¹ | Binding constant for sugar chain No. 732 (FAC binding constant; sugar chain having no fucose): <1000 M⁻¹ | Binding constant for sugar chain No. 733 (FAC binding constant; sugar chain having no fucose): <1000 M⁻¹ | Binding constant for sugar chain No. 734 (FAC binding constant; sugar chain having no fucose): <1000 M⁻¹ | Binding constant for sugar chain No. 735 (FAC binding constant; sugar chain having no fucose): <1000 M⁻¹ | Binding constant for sugar chain No. 736 (FAC binding constant; sugar chain having no fucose): <1000 M⁻¹ | Binding constant for sugar chain No. 737 (FAC binding constant; sugar chain having no fucose): <1000 M⁻¹ | Binding constant for sugar chain No. 738 (FAC binding constant; sugar chain having no fucose): <1000 M⁻¹ | Binding constant for sugar chain No. 901 (FAC binding constant; sugar chain having no fucose): <1000 M⁻¹ | Binding constant for sugar chain No. 902 (FAC binding constant; sugar chain having no fucose): <1000 M⁻¹ | Binding constant for sugar chain No. 903 (FAC binding constant; sugar chain having no fucose): <1000 M⁻¹ | Binding constant for sugar chain No. 905 (FAC binding constant; sugar chain having no fucose): <1000 M⁻¹ | Binding constant for sugar chain No. 906 (FAC binding constant; sugar chain having no fucose): <1000 M⁻¹ | Binding constant for sugar chain No. 907 (FAC binding constant; sugar chain having no fucose): <1000 M⁻¹ | Binding constant for sugar chain No. 015 (FAC binding constant; sugar chain having α1→6 fucose): 120000 M⁻¹ | Binding constant for sugar chain No. 201 (FAC binding constant; sugar chain having α1→6 fucose): 100000 M⁻¹ | Binding constant for sugar chain No. 202 (FAC binding constant; sugar chain having α1→6 fucose): 44000 M⁻¹ | Binding constant for sugar chain No. 203 (FAC binding constant; sugar chain having α1→6 fucose): 25000 M⁻¹ | Binding constant for sugar chain No. 401 (FAC binding constant; sugar chain having α1→6 fucose): 92000 M⁻¹ | Binding constant for sugar chain No. 402 (FAC binding constant; sugar chain having α1→6 fucose): 48000 M⁻¹ | Binding constant for sugar chain No. 403 (FAC binding constant; sugar chain having α1→6 fucose): 38000 M⁻¹ | Binding constant for sugar chain No. 404 (FAC binding constant; sugar chain having α1→6 fucose): 45000 M⁻¹ | Binding constant for sugar chain No. 405 (FAC binding constant; sugar chain having α1→6 fucose): 36000 M⁻¹ | Binding constant for sugar chain No. 406 (FAC binding constant; sugar chain having α1→6 fucose): 13000 M⁻¹ | Binding constant for sugar chain No. 407 (FAC binding constant; sugar chain having α1→6 fucose): <1000 M⁻¹ | Binding constant for sugar chain No. 410 (FAC binding constant; sugar chain having α1→6 fucose): <1000 M⁻¹ | Binding constant for sugar chain No. 413 (FAC binding constant; sugar chain having α1→6 fucose): <1000 M⁻¹ | Binding constant for sugar chain No. 418 (FAC binding constant; sugar chain having α1→6 fucose): <1000 M⁻¹ | Binding constant for sugar chain No. 601 (FAC binding constant; sugar chain having α1→6 fucose): 31000 M⁻¹ | Binding constant for sugar chain No. 602 (FAC binding constant; sugar chain having α1→6 fucose): 29000 M⁻¹ | Binding constant for sugar chain No. 728 [1]: <1000 M⁻¹ | binding to sugar chain excluding the α1→6 fucose (in words) ([2]; sugar chains No. 003, and 005 to 014 for LCL and PSL): bind | binding to the fucose α1→6 sugar chains (in words) ([2]; sugar chains No. 015, 201 to 203, and 401 to 418): bind
